Laboratory results: the supplement of paper PMC9876800

Tested on: peptide library, one residue held at a place counted from the S/T acceptor
Experiment: relative phosphorylation of the sub-library (ratio to the mean residue at this position); higher = residue favoured
Conditions: human
How it was run: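 Each biotinylated degenerate peptide sub-library fixed one residue at one position around a central Ser/Thr and was incubated with a purified recombinant kinase, a human or orthologue construct, in 384-well plates. The 90 min reactions, under kinase-specific conditions, contained 50 μM peptide and 50 μM ATP spiked with γ-32P-ATP. Phosphorylation was read by phosphorimaging spots on streptavidin membranes and quantifying them by densitometry. Relative sub-library phosphorylation expresses each value as a ratio to the mean residue at that position.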

Sequence of CHUK, construct: Full length (O15111 whole entry, looked up): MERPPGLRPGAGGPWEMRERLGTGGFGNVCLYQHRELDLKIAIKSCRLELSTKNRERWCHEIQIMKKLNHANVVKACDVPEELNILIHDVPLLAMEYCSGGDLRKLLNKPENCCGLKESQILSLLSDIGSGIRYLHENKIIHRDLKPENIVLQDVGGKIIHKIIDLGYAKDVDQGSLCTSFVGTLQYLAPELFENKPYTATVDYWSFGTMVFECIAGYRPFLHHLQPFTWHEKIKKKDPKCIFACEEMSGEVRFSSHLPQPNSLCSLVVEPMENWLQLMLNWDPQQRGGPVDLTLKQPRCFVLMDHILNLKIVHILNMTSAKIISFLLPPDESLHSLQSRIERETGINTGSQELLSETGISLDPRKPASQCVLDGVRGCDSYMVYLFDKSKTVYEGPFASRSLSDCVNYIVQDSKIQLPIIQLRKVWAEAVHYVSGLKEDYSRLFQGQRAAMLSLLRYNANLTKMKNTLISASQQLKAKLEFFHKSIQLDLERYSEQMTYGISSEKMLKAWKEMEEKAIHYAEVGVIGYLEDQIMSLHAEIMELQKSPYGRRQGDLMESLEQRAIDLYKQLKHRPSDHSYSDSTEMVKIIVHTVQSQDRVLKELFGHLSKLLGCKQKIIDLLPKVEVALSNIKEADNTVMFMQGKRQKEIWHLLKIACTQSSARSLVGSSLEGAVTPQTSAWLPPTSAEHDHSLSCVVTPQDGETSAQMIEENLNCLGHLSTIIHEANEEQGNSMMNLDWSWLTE
Sequence of DAPK3, construct: aa1-404 (O43293 1-404, looked up): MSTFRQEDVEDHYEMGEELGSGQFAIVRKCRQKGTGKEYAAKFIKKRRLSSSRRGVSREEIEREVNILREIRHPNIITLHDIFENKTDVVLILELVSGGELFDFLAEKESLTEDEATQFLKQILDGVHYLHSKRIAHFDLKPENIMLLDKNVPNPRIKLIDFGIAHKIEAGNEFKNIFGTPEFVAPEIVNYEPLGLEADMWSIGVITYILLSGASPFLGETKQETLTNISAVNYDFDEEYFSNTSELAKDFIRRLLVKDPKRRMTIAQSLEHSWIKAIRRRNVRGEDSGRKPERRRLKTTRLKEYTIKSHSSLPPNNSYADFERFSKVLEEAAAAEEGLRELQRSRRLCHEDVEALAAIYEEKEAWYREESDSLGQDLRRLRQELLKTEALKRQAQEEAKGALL
Sequence of DCLK2, construct: aa1-690 (Q8N568 1-690, looked up): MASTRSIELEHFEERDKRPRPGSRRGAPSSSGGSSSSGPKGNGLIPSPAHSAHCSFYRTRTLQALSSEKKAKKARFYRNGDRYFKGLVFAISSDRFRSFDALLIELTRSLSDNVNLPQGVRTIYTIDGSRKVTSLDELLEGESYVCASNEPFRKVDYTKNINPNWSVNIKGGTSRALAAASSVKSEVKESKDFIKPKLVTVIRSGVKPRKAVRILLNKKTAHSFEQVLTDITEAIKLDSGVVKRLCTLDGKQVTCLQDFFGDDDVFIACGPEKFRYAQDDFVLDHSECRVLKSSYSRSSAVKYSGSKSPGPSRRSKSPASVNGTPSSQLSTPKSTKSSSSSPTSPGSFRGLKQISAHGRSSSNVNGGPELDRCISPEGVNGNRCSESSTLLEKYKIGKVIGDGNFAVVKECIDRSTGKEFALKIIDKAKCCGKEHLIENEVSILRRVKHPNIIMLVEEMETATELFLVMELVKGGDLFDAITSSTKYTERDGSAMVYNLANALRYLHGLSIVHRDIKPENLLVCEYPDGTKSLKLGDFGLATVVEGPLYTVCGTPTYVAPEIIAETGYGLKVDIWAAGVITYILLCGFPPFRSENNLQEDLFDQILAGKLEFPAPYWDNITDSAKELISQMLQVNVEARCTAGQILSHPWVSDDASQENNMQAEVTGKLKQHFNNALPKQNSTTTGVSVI
Sequence of CSNK1G2, construct: aa43-353 (P78368 43-353, looked up): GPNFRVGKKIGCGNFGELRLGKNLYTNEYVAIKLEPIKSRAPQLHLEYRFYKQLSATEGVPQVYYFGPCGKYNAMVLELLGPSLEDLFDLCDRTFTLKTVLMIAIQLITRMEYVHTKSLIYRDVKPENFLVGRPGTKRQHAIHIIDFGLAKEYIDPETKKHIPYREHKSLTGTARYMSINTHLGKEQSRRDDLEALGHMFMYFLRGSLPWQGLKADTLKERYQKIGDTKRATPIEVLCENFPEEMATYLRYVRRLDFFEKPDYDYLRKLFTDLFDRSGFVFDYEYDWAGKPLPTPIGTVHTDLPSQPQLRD

CHUK, construct: Full length (from UniProt O15111)
relative phosphorylation
Conditions	at +1	at +2	at +3	at +4	at -1	at -2	at -3	at -4	at -5
A fixed	0.486	0.954	0.902	0.978	0.716	1.1	0.777	1.15	1.29
D fixed	0.518	1.23	1.9	1.66	1.19	0.571	1.27	2.17	2.57
E fixed	0.61	1.26	2.02	1.55	1.11	1.1	1.53	2.15	2.29
F fixed	1.22	0.635	0.576	0.717	0.688	2	0.809	0.602	0.657
G fixed	1.18	1.55	1.48	1.43	0.615	0.548	1.12	1.55	1.4
H fixed	1.01	1.34	1.14	1.17	1.17	1.23	1.15	0.888	1.12
I fixed	1.94	0.78	0.548	0.769	0.346	0.874	0.365	0.49	0.395
K fixed	0.28	0.408	0.358	0.746	1.5	0.25	0.875	0.417	0.556
L fixed	1.68	0.726	0.688	0.724	0.702	1.59	0.408	0.552	0.548
M fixed	1.86	0.982	0.772	0.918	0.962	1.06	0.784	0.79	0.591
N fixed	0.931	1.9	1.28	1.17	1.58	1.35	1.69	1.17	1.22
P fixed	0.282	1.12	1.16	1.24	1.54	0.68	2.06	1.87	0.981
Q fixed	0.729	1.25	1.24	1.13	1.47	0.804	1.18	0.978	0.889
R fixed	0.162	0.27	0.26	0.177	0.641	0.176	0.728	0.314	0.476
V fixed	1.46	1.1	0.636	0.667	0.688	0.644	0.567	0.547	0.664
W fixed	1.29	0.756	1.04	0.978	0.784	0.663	0.704	0.693	0.791
Y fixed	1.36	0.75	1.01	0.977	1.31	2.36	0.991	0.68	0.562
pThr fixed	0.978	1.06	1.08	1.62	0.755	1.24	1.4	1.56	1.06
pTyr fixed	1.1	1.25	0.908	1.08	1.55	5.95	2.02	1.32	0.984

CSNK1G2, construct: aa43-353 (from UniProt P78368)
relative phosphorylation
Conditions	at +1	at +2	at +3	at +4	at -1	at -2	at -3	at -4	at -5
A fixed	0.721	0.84	0.944	0.864	1.07	1.17	0.642	1.13	0.845
D fixed	0.589	0.43	1.14	1.31	1.52	1.2	4.54	1.46	2.48
E fixed	1	0.999	0.339	1.25	2.85	4.44	2.79	1.85	1.89
F fixed	0.973	1.33	1.29	0.996	0.834	0.524	0.55	0.896	0.82
G fixed	0.636	0.516	1.23	0.746	0.797	0.686	0.705	0.767	0.79
H fixed	0.986	1.21	1.59	0.806	0.904	0.682	0.652	0.861	0.886
I fixed	1.88	1.32	1.08	0.961	0.902	0.666	0.465	0.694	0.875
K fixed	0.517	0.942	0.54	0.702	0.774	0.659	0.891	0.877	0.968
L fixed	1.55	0.605	0.944	1	1.02	0.656	0.458	0.842	0.76
M fixed	1.36	1.3	1.09	1.03	0.484	0.594	0.561	0.817	0.799
N fixed	0.672	0.875	0.732	0.797	0.807	1.18	0.766	0.858	0.859
P fixed	0.44	0.537	0.738	0.947	0.965	0.876	0.577	1.05	0.745
Q fixed	0.592	0.618	0.61	0.936	1.03	1.04	0.707	1.03	1
R fixed	0.813	0.996	0.687	0.684	1.11	0.695	0.895	1.02	0.961
V fixed	1.94	1.46	1.29	1.17	0.766	0.813	0.44	0.733	0.686
W fixed	0.852	1.34	1.27	1.35	0.589	0.5	0.652	1.15	0.821
Y fixed	1.47	1.68	1.49	1.45	0.569	0.619	0.711	0.971	0.816
pThr fixed	1.33	1.36	2.58	3.98	3.89	9.46	62.6	8.08	4.7
pTyr fixed	2.52	5.33	19.2	6.91	2.93	6.96	8.28	6.71	6.32

DAPK3, construct: aa1-404 (from UniProt O43293)
relative phosphorylation
Conditions	at +1	at +2	at +3	at +4	at -1	at -2	at -3	at -4	at -5
A fixed	0.877	0.903	0.724	0.839	0.73	1.06	0.654	1	0.953
D fixed	1.61	0.84	0.753	0.791	0.823	0.448	0.447	0.844	0.79
E fixed	1.69	0.976	0.719	0.706	0.601	0.398	0.393	0.85	0.666
F fixed	0.52	0.932	1.02	1.14	0.667	0.338	0.412	0.759	0.583
G fixed	1.15	0.661	0.89	0.939	0.888	0.74	0.636	0.947	1.03
H fixed	0.825	1.01	1.04	1.51	1.29	1.24	0.835	1.1	1.17
I fixed	0.786	0.873	1.95	0.95	0.58	0.313	0.311	0.645	0.73
K fixed	0.595	0.789	0.685	0.712	1.48	1.33	2.51	1.65	1.59
L fixed	0.707	1.44	1.63	0.902	0.946	0.361	0.365	0.677	0.927
M fixed	1.15	1.5	1.08	0.984	0.943	0.415	0.422	0.871	0.912
N fixed	1.33	1.03	0.776	1	1.69	0.952	0.548	0.85	0.891
P fixed	0.309	0.9	0.78	0.885	1.06	0.406	0.703	0.854	0.959
Q fixed	2.62	1.25	0.804	0.797	1.15	0.989	0.769	1.04	0.942
R fixed	0.811	1.13	0.942	1.03	1.71	6.46	6.61	2.25	2.36
V fixed	0.807	0.827	1.41	0.927	0.698	0.397	0.294	0.844	0.699
W fixed	0.638	0.941	0.984	1.61	0.753	0.755	0.634	1.02	0.776
Y fixed	0.582	1.01	0.808	1.28	1	0.401	0.462	0.803	1.01
pThr fixed	1.83	1.01	0.854	1.04	0.695	0.53	0.633	0.84	0.973
pTyr fixed	1.19	1.02	1.35	1.08	0.957	0.623	0.605	0.929	1.1

DCLK2, construct: aa1-690 (from UniProt Q8N568)
relative phosphorylation
Conditions	at +1	at +2	at +3	at +4	at -1	at -2	at -3	at -4	at -5
A fixed	0.573	0.702	0.791	0.84	0.731	1.26	0.798	1.03	0.816
D fixed	0.373	0.373	0.673	0.855	0.669	0.725	0.372	0.573	0.437
E fixed	0.414	0.304	0.701	0.838	0.436	1.56	0.427	0.748	0.4
F fixed	3.73	1.72	1.17	1.22	0.853	0.659	0.406	0.988	1.55
G fixed	0.532	0.412	0.887	0.922	1.31	1.08	0.589	1.11	0.76
H fixed	0.815	1.63	1.19	0.987	1.2	0.934	0.831	1	0.907
I fixed	0.918	1.35	0.815	0.917	0.522	0.437	0.33	0.885	1.1
K fixed	1.18	0.639	1.35	1.28	2.27	1.9	3.49	1.8	1.36
L fixed	0.882	1.26	1.09	1.16	0.884	0.687	0.436	0.99	1.47
M fixed	1.4	1.07	1.02	1.12	0.804	0.909	0.484	0.947	1.15
N fixed	0.77	0.49	0.91	0.93	1.16	1.1	0.581	0.784	0.649
P fixed	0.371	0.522	0.727	1.19	0.981	0.423	0.701	0.977	0.946
Q fixed	0.915	0.531	0.947	1.01	0.863	1.79	0.787	1.04	0.802
R fixed	0.903	0.554	1.37	1.05	2.06	1.65	5.46	1.32	1.44
V fixed	0.702	1.1	0.923	0.758	0.554	0.462	0.315	0.941	0.923
W fixed	1.22	1.42	1.27	1.09	0.621	0.725	0.549	0.914	1.17
Y fixed	1.3	2.91	1.17	0.846	1.09	0.695	0.447	0.942	1.12
pThr fixed	0.782	0.935	1.04	0.993	0.455	0.391	0.374	0.652	0.506
pTyr fixed	0.776	7.04	1.07	0.687	0.515	0.367	0.298	0.548	0.576
